Assay results: US20220040297A1 (Chugai, published 2022)
Ends that are not written are not given here.

T1: biotin-labeled CD3ε peptide (also: biotin-labeled, site not given here)
T1 construct: also called CD3 peptide; biotinylated CD3ε peptide
T1 peptide: QDGNEEMGGITQTPY


What was measured:
CD3ε homodimer protein = target: T2, CD3ε homodimer protein (human, UniProt P07766 23-126, limits assumed); assay: SPR (Biacore); CD3ε homodimer immobilized, one-arm antibody as analyte
T2 construct: also called human CD3ε homodimer protein; CD3e homodimer

[1] = target: T3, integrin αvβ3 (R&D Systems, Inc.) (human, UniProt P06756 31-992; P05106 27-718); assay: ECL; integrin αvβ3 value without against with CD3ε homodimer protein (competitor)
[2] = target: T4, human IgA-Fc with AviTag, biotinylated (human, UniProt P01876 123-333, limits assumed, biotinylated at the C-terminal AviTag sequence); assay: ECL; biotinylated hIgA with CD3ε homodimer protein (competitor), ratio to the no-antigen well
T4 construct: also called hIgA; biotinylated human IgA

[3] = target: T4, human IgA-Fc with AviTag, biotinylated; assay: ECL; biotinylated hIgA, ratio to the no-antigen well
[4] = target: T4, human IgA-Fc with AviTag, biotinylated; assay: ECL; biotinylated hIgA with integrin αvβ3 (competitor), ratio to the no-antigen well
[5] = target: T1, biotin-labeled CD3ε peptide; assay: ECL; CD3 peptide as antigen, ratio to the no-antigen well
[6] = target: T4, human IgA-Fc with AviTag, biotinylated; assay: ECL; hIgA value without against with integrin αvβ3 (competitor)
[7] = target: T3, integrin αvβ3 (R&D Systems, Inc.); assay: ECL; integrin αvβ3 on plate with CD3ε homodimer protein (competitor), ratio to the integrin-free well
[8] = target: T4, human IgA-Fc with AviTag, biotinylated; assay: ECL; hIgA signal without against with CD3ε homodimer protein (competitor)
[9] = target: T4, human IgA-Fc with AviTag, biotinylated; assay: ECL; biotinylated hIgA, ratio to the no-antigen well; remark: listed apart in the source
[10] = target: T3, integrin αvβ3 (R&D Systems, Inc.); assay: ECL; integrin αvβ3 on plate, ratio to the integrin-free well

Binder	Kd (CD3ε homodimer protein) [nM]	Amount of binding to integrin αvβ3 attenuated by CD3 [1] [fold]	Value as compared with antigen-free well [2] [fold]	Value as compared with antigen-free well [3] [fold]	Value as compared with antigen-free well [4] [fold]	Value as compared with antigen-free well [5] [fold]	Amount of binding to hIgA attenuated by integrin αvβ3 [6] [fold]	Value as compared with integrin αvβ3-free well [7] [fold]	Amount of binding to hIgA attenuated by CD3 [8] [fold]	Value as compared with antigen-free well [9] [fold]	Value as compared with integrin αvβ3-free well [10] [fold]
CE115HA000 V11L/D72A/L78I/D101Q with GGS inserted between Kabat 99 and 100 (antibody, one-arm antibody) heavy: QVQLVESGGGLVQPGRSLRLSCAASGFTFSNAWMHWVRQAPGKGLEWVAQIKAKSNNYATYYAESVKGRFTISRADSKNSIYLQMNSLKTEDTAVYYCRYVHYGAGGSYYGVQAWGQGTTVTVSSASTKGPSVFPLAPSSKSTSGGTAALGCLVKDYFPEPVTVSWNSGALTSGVHTFPAVLQSSGLYSLSSVVTVPSSSLGTQTYICNVNHKPSNTKVDKKVEPKSCDKTHTCPPCPAPEAAGGPSVFLFPPKPKDTLMISRTPEVTCVVVDVSHEDPEVKFNWYVDGVEVHNAKTKPREEQYASTYRVVSVLTVLHQDWLNGKEYKCKVSNKALPAPIEKTISKAKGQPREPQVYTLPPSRCELTKNQVSLSCAVKGFYPSDIAVEWESNGQPENNYKTTPPVLDSDGSFFLVSKLTVDKSRWQQGNVFSCSVMHEALHNHYTQKSLSLSPDYKDDDDK Fc: EPKSSDKTHTCPPCPAPELLGGPSVFLFPPKPKDTLMISRTPEVTCVVVDVSHEDPEVKFNWYVDGVEVHNAKTKPREEQYNSTYRVVSVLTVLHQDWLNGKEYKCKVSNKALPAPIEKTISKAKGQPREPQVCTLPPSRDELTKNQVSLWCLVKGFYPSDIAVEWESNGQPENNYKTTPPVLDSDGSFFLYSKLTVDKSRWQQGNVFSCSVMHEALHNRYTQKSLSLSP light: DIVMTQSPLSLPVTPGEPASISCRSSQSLVHSNRNTYLHWYQQKPGQAPRLLIYKVSNRFSGVPDRFSGSGSGTDFTLKISRVEAEDVGVYYCGQGTQVPYTFGQGTKLEIKRTVAAPSVFIFPPSDEQLKSGTASVVCLLNNFYPREAKVQWKVDNALQSGNSQESVTEQDSKDSTYSLSSTLTLSKADYEKHKVYACEVTHQGLSSPVTKSFNRGEC	63.1										
CE115HA000 V11L/D72A/L78I/D101Q, no insertion (antibody, human IgG1, kappa, L234A L235A, N297A, name in Kabat numbering) heavy: QVQLVESGGGLVQPGRSLRLSCAASGFTFSNAWMHWVRQAPGKGLEWVAQIKAKSNNYATYYAESVKGRFTISRADSKNSIYLQMNSLKTEDTAVYYCRYVHYGAYYGVQAWGQGTTVTVSSASTKGPSVFPLAPSSKSTSGGTAALGCLVKDYFPEPVTVSWNSGALTSGVHTFPAVLQSSGLYSLSSVVTVPSSSLGTQTYICNVNHKPSNTKVDKKVEPKSCDKTHTCPPCPAPEAAGGPSVFLFPPKPKDTLMISRTPEVTCVVVDVSHEDPEVKFNWYVDGVEVHNAKTKPREEQYASTYRVVSVLTVLHQDWLNGKEYKCKVSNKALPAPIEKTISKAKGQPREPQVYTLPPSRCELTKNQVSLSCAVKGFYPSDIAVEWESNGQPENNYKTTPPVLDSDGSFFLVSKLTVDKSRWQQGNVFSCSVMHEALHNHYTQKSLSLSPDYKDDDDK EPKSSDKTHTCPPCPAPELLGGPSVFLFPPKPKDTLMISRTPEVTCVVVDVSHEDPEVKFNWYVDGVEVHNAKTKPREEQYNSTYRVVSVLTVLHQDWLNGKEYKCKVSNKALPAPIEKTISKAKGQPREPQVCTLPPSRDELTKNQVSLWCLVKGFYPSDIAVEWESNGQPENNYKTTPPVLDSDGSFFLYSKLTVDKSRWQQGNVFSCSVMHEALHNRYTQKSLSLSP light: DIVMTQSPLSLPVTPGEPASISCRSSQSLVHSNRNTYLHWYQQKPGQAPRLLIYKVSNRFSGVPDRFSGSGSGTDFTLKISRVEAEDVGVYYCGQGTQVPYTFGQGTKLEIKRTVAAPSVFIFPPSDEQLKSGTASVVCLLNNFYPREAKVQWKVDNALQSGNSQESVTEQDSKDSTYSLSSTLTLSKADYEKHKVYACEVTHQGLSSPVTKSFNRGEC	6.96										
CE115HA000 / GLS3000 one-arm antibody (antibody, human IgG1, kappa, L234A L235A, N297A, one-arm antibody) heavy: QVQLVESGGGVVQPGRSLRLSCAASGFTFSNAWMHWVRQAPGKGLEWVAQIKAKSNNYATYYAESVKGRFTISRDDSKNSLYLQMNSLKTEDTAVYYCRYVHYGAYYGVDAWGQGTTVTVSSASTKGPSVFPLAPSSKSTSGGTAALGCLVKDYFPEPVTVSWNSGALTSGVHTFPAVLQSSGLYSLSSVVTVPSSSLGTQTYICNVNHKPSNTKVDKKVEPKSCDKTHTCPPCPAPEAAGGPSVFLFPPKPKDTLMISRTPEVTCVVVDVSHEDPEVKFNWYVDGVEVHNAKTKPREEQYASTYRVVSVLTVLHQDWLNGKEYKCKVSNKALPAPIEKTISKAKGQPREPQVYTLPPSRCELTKNQVSLSCAVKGFYPSDIAVEWESNGQPENNYKTTPPVLDSDGSFFLVSKLTVDKSRWQQGNVFSCSVMHEALHNHYTQKSLSLSPDYKDDDDK EPKSSDKTHTCPPCPAPELLGGPSVFLFPPKPKDTLMISRTPEVTCVVVDVSHEDPEVKFNWYVDGVEVHNAKTKPREEQYNSTYRVVSVLTVLHQDWLNGKEYKCKVSNKALPAPIEKTISKAKGQPREPQVCTLPPSRDELTKNQVSLWCLVKGFYPSDIAVEWESNGQPENNYKTTPPVLDSDGSFFLYSKLTVDKSRWQQGNVFSCSVMHEALHNRYTQKSLSLSP light: DIVMTQSPLSLPVTPGEPASISCRSSQSLVHSNRNTYLHWYQQKPGQAPRLLIYKVSNRFSGVPDRFSGSGSGTDFTLKISRVEAEDVGVYYCGQGTQVPYTFGQGTKLEIKRTVAAPSVFIFPPSDEQLKSGTASVVCLLNNFYPREAKVQWKVDNALQSGNSQESVTEQDSKDSTYSLSSTLTLSKADYEKHKVYACEVTHQGLSSPVTKSFNRGEC	110										
IGAR6(2)B02 (antibody, human IgG1, kappa, L234A L235A, N297A, One-arm antibody; also called IGA6 (2) B02; IGAR6(2)B02#1) heavy: QVQLVESGGGLVQPGRSLRLSCAASGFTFSNAWMHWVRQAPGKGLEWVAQIKDKGQQYAAYYAPSVKGRFTISRDDSKNSIYLQMNSLKTEDTAVYYCRYVHYQTYSDGSFYFGVDAWGQGTTVTVSSASTKGPSVFPLAPSSKSTSGGTAALGCLVKDYFPEPVTVSWNSGALTSGVHTFPAVLQSSGLYSLSSVVTVPSSSLGTQTYICNVNHKPSNTKVDKKVEPKSCDKTHTCPPCPAPEAAGGPSVFLFPPKPKDTLMISRTPEVTCVVVDVSHEDPEVKFNWYVDGVEVHNAKTKPREEQYASTYRVVSVLTVLHQDWLNGKEYKCKVSNKALPAPIEKTISKAKGQPREPQVYTLPPSRCELTKNQVSLSCAVKGFYPSDIAVEWESNGQPENNYKTTPPVLDSDGSFFLVSKLTVDKSRWQQGNVFSCSVMHEALHNHYTQKSLSLSPDYKDDDDK EPKSSDKTHTCPPCPAPELLGGPSVFLFPPKPKDTLMISRTPEVTCVVVDVSHEDPEVKFNWYVDGVEVHNAKTKPREEQYNSTYRVVSVLTVLHQDWLNGKEYKCKVSNKALPAPIEKTISKAKGQPREPQVCTLPPSRDELTKNQVSLWCLVKGFYPSDIAVEWESNGQPENNYKTTPPVLDSDGSFFLYSKLTVDKSRWQQGNVFSCSVMHEALHNRYTQKSLSLSP light: DIVMTQSPLSLPVTPGEPASISCRSSQSLVHSNRNTYLHWYQQKPGQAPRLLIYKVSNRFSGVPDRFSGSGSGTDFTLKISRVEAEDVGVYYCGQGTQVPYTFGQGTKLEIKRTVAAPSVFIFPPSDEQLKSGTASVVCLLNNFYPREAKVQWKVDNALQSGNSQESVTEQDSKDSTYSLSSTLTLSKADYEKHKVYACEVTHQGLSSPVTKSFNRGEC		1	1	20	15.9	910	1	0.8	23.4	15.6	0.8
IGAR6(2)B02H1 (antibody, human IgG1, kappa, L234A L235A, N297A, One-arm antibody) heavy: QVQLVESGGGLVQPGRSLRLSCAASGFTFSNAWMHWVRQAPGKGLEWVAQIKDKGQQYAAYYAPSVKGRFTISRDGCRGDCLDSKNSIYLQMNSLKTEDTAVYYCRYVHYQTYSDGSFYFGVDAWGQGTTVTVSSASTKGPSVFPLAPSSKSTSGGTAALGCLVKDYFPEPVTVSWNSGALTSGVHTFPAVLQSSGLYSLSSVVTVPSSSLGTQTYICNVNHKPSNTKVDKKVEPKSCDKTHTCPPCPAPEAAGGPSVFLFPPKPKDTLMISRTPEVTCVVVDVSHEDPEVKFNWYVDGVEVHNAKTKPREEQYASTYRVVSVLTVLHQDWLNGKEYKCKVSNKALPAPIEKTISKAKGQPREPQVYTLPPSRCELTKNQVSLSCAVKGFYPSDIAVEWESNGQPENNYKTTPPVLDSDGSFFLVSKLTVDKSRWQQGNVFSCSVMHEALHNHYTQKSLSLSPDYKDDDDK EPKSSDKTHTCPPCPAPELLGGPSVFLFPPKPKDTLMISRTPEVTCVVVDVSHEDPEVKFNWYVDGVEVHNAKTKPREEQYNSTYRVVSVLTVLHQDWLNGKEYKCKVSNKALPAPIEKTISKAKGQPREPQVCTLPPSRDELTKNQVSLWCLVKGFYPSDIAVEWESNGQPENNYKTTPPVLDSDGSFFLYSKLTVDKSRWQQGNVFSCSVMHEALHNRYTQKSLSLSP light: DIVMTQSPLSLPVTPGEPASISCRSSQSLVHSNRNTYLHWYQQKPGQAPRLLIYKVSNRFSGVPDRFSGSGSGTDFTLKISRVEAEDVGVYYCGQGTQVPYTFGQGTKLEIKRTVAAPSVFIFPPSDEQLKSGTASVVCLLNNFYPREAKVQWKVDNALQSGNSQESVTEQDSKDSTYSLSSTLTLSKADYEKHKVYACEVTHQGLSSPVTKSFNRGEC		2.4	1	8	1.6	1410	2.5	185	7.4	3.9	438
